Reference: PMC6711944, “Structural insights into the species preference of the influenza B virus NS1 protein in ISG15 binding” (Protein & Cell, 2018)

How the values were obtained:
[1] = target: T1, NS1B-NTR (1-103), N-terminal region of the influenza B virus NS1 protein (influenza B virus, UniProt P03502 1-103); experiment: ITC; about 0.5 mM ISG15 injected into 250 ul of 0.05 mM NS1B-NTR in the cell, 20 aliquots of 2 ul; 25 °C; 10 mM HEPES-sodium, 500 mM NaCl, pH 7.2; MicroCal iTC200; 'one set of sites' fitting model; conditions: both partners purified
T1 construct: not shown: GST, N-terminal, cleaved
T1 sequence: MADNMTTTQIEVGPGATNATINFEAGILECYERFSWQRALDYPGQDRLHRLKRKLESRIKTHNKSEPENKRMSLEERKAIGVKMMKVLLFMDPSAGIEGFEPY

canine ISG15 = target: T2, canine ISG15 (canine, UniProt A0A8I3P342 1-174); experiment: ITC; isothermal titration calorimetry of NS1B-NTR and ISG15 proteins; which was titrated and the conditions are not told in the text shown; conditions: both partners purified
T2 construct: also called cISG15
T2 sequence (A0A8I3P342 entry or part of it): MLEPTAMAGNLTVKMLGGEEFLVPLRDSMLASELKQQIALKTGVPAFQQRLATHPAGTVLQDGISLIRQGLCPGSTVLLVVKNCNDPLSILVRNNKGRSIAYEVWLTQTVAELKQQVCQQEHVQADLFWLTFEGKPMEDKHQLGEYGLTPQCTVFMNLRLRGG

[2] = target: T3, hISG15 with the first two linker residues (Asp76, Lys77) converted to alanine (human, UniProt P05161 1-157, Asp76 to alanine | Lys77 to alanine); experiment: as above; conditions: both partners purified
T3 construct: also called the mutated hISG15
T3 sequence (P05161 other isoform, or with tags, fused parts or gaps with the stated changes): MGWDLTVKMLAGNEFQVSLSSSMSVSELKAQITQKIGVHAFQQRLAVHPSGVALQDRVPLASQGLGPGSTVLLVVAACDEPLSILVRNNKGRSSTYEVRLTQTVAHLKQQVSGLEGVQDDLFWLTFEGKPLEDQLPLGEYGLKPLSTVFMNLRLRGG

bovine ISG15 = target: T4, bovine ISG15 (bovine, UniProt O02741 1-154); experiment: as above; conditions: both partners purified
T4 construct: also called bISG15

hISG15-L10A = target: T5, hISG15-L10A (human, UniProt P05161 1-157, L10A); experiment: as above; conditions: both partners purified
T5 construct: Mutant of m2
T5 sequence (P05161 1-157 L10A): as the sequence (P05161 other isoform, or with tags, fused parts or gaps with the stated changes) above, with L10A, A76D, A77K counted along it

human ISG15 = target: T6, human ISG15 (human, UniProt P05161 1-157); experiment: as above; conditions: both partners purified
T6 construct: also called hISG15
T6 sequence (P05161 1-157): as the sequence (P05161 other isoform, or with tags, fused parts or gaps with the stated changes) above, with A76D, A77K counted along it

murine ISG15 = target: T7, murine ISG15 (murine, UniProt Q64339 1-155); experiment: as above; conditions: both partners purified
T7 construct: also called mISG15

[3] = target: the molecule itself; experiment: crystal structure; crystal structures of NS1B-NTR in complex with mISG15, cISG15 or bISG15

B1: mISG15-Q74A-N75A (natural protein)
chain: MAWDLKVKMLGGNDFLVSVTNSMTVSELKKQIAQKIGVPAFQQRLAHQTAVLQDGLTLSSLGLGPSSTVMLVVAASSEPLSILVRNERGHSNIYEVFLTQTVDTLKKKVSQREQVHEDQFWLSFEGRPMEDKELLGEYGLKPQCTVIKHLRLRGG
notes: not shown: GST, N-terminal, cleaved
Question: Which Kd [1] does the source give for B1 here?
Answer: 6 µM

B2: bISG15-Q76A-N77A (natural protein)
chain: MGGDLTVKMLGGQEILVPLRDSMTVSELKQFIAQKINVPAFQQRLAHLDSREVLQEGVPLVLQGLRAGSTVLLVVAASISILVRNDKGRSSPYEVQLKQTVAELKQQVCQKERVQADQFWLSFEGRPMDDEHPLEEYGLMKGCTVFMNLRLRGG
notes: as for B1
Question: How did the Kd [1] turn out when B2 was run?
Answer: 10 µM

B3: NS1B-NTR, containing the 103 N-terminal residues of NS1B (influenza B virus NS1 protein) (domain or fragment)
chain: MADNMTTTQIEVGPGATNATINFEAGILECYERFSWQRALDYPGQDRLHRLKRKLESRIKTHNKSEPENKRMSLEERKAIGVKMMKVLLFMDPSAGIEGFEPY
notes: the same region as in the cited hISG15/NS1B-NTR structure PDB 3RT3
Question: For B3, which Kd (canine ISG15) is on record?
Answer: 34 µM

Question: What about the “stoichiometry N” value (canine ISG15) of the same binder?
Answer: 1

Question: What about the Kd [2] of the same binder?
Answer: 5 µM

Question: And the Kd (bovine ISG15)?
Answer: 12 µM

Question: And the “stoichiometry N” value (bovine ISG15)?
Answer: 1

Question: And the Kd (hISG15-L10A)?
Answer: 17 µM

Question: What about the Kd (human ISG15) of the same binder?
Answer: 0.28 µM

Question: And the “stoichiometry N” value (human ISG15)?
Answer: 1

Question: What about the Kd (murine ISG15) of the same binder?
Answer: 13 µM

Question: What about the “stoichiometry N” value (murine ISG15) of the same binder?
Answer: 1

Question: What about the “stoichiometry N” value [3] of the same binder?
Answer: 2
